According to IntAct's records for PubMed 22068056:

B1: SWI/SNF-related matrix-associated actin-dependent regulator of chromatin subfamily D member 3 (Mus musculus), Q6P9Z1 (parent)
chain: MAADEVAGGARKATKSKLFEFLVHGVRPGMPSGARMPHQGAPMGPPGSPYMGSPAVRPGLAPAGMEPARKRAAPPPGQSQAQGQGQPVPTAPARSRSAKRRKMADKILPQRIRELVPESQAYMDLLAFERKLDQTIMRKRVDIQEALKRPMKQKRKLRLYISNTFNPAKPDAEDSDGSIASWELRVEGKLLDDPSKQKRKFSSFFKSLVIELDKDLYGPDNHLVEWHRTPTTQETDGFQVKRPGDLSVRCTLLLMLDYQPPQFKLDPRLARLLGLHTQSRSAIVQALWQYVKTNRLQDSHDKEYINGDKYFQQIFDCPRLKFSEIPQRLTALLLPPDPIVINHVISVDPSDQKKTACYDIDVEVEEPLKGQMSSFLLSTANQQEISALDSKIHETIESINQLKIQRDFMLSFSRDPKGYVQDLLRSQSRDLKVMTDVAGNPEEERRAEFYHQPWSQEAVSRYFYCKIQQRRQELEQSLVVRNT

Variants of: B1
Details: with smca4_mouse Smarca4, Q3TKT4
smca4_mouse Smarca4, Q3TKT4, sequence (Q3TKT4 whole entry): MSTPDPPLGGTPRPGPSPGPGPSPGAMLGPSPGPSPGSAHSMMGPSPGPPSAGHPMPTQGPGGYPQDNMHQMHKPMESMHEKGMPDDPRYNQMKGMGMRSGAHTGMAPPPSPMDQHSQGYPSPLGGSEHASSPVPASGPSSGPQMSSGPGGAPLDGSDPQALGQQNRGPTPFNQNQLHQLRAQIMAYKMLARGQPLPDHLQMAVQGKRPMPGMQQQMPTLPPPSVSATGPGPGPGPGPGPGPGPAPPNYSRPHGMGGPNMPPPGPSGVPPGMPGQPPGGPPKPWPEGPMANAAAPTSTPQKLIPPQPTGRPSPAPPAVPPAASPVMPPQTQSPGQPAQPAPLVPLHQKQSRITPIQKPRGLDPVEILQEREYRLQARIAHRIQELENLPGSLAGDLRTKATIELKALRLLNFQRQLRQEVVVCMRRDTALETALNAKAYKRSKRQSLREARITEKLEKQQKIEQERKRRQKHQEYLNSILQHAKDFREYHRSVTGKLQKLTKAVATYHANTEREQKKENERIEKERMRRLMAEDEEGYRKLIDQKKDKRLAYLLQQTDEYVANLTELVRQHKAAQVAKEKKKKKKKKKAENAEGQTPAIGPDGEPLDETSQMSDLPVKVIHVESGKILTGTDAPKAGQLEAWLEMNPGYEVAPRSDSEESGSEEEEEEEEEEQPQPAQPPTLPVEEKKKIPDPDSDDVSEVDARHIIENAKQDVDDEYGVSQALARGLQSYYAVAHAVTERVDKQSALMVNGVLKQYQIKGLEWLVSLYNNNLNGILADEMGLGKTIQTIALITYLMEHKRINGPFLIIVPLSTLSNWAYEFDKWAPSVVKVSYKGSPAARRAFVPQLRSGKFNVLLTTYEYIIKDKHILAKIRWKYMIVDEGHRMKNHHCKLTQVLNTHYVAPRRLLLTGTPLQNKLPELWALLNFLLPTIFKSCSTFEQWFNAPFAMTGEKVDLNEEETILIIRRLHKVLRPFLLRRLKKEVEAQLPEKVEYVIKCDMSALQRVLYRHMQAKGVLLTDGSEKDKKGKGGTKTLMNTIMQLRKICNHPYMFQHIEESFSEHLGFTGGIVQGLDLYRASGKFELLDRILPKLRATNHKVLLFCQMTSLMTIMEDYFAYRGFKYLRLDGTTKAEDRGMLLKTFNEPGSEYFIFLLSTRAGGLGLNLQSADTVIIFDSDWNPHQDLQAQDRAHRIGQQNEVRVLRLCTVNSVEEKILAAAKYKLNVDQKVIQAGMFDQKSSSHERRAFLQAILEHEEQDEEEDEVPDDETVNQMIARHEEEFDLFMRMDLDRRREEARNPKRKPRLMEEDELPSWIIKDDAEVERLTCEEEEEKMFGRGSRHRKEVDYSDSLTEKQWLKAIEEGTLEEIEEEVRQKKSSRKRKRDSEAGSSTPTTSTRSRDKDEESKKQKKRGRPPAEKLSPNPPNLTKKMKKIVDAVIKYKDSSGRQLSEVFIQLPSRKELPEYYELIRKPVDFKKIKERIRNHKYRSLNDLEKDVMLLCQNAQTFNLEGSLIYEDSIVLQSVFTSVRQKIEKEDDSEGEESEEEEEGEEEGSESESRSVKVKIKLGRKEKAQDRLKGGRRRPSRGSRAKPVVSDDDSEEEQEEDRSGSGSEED
For T229A, the “effect of a mutation on the interaction” value was “disrupting interaction”.
